Measured values as given in patent US20190077860A1 (EISAI R AND D MANAGEMENT, published 2019).
Values belong to the binder of their own block, whether it stands above or below them.

Tests used:
Experiment in all cases: ELISA
[1] = target: T1, human EphA10 extracellular region-SEAP-His protein (human, UniProt Q5JZY3 34-565)
T1 construct: extracellular domain; also called hEphA10-SEAP-His
T1 sequence (looked up): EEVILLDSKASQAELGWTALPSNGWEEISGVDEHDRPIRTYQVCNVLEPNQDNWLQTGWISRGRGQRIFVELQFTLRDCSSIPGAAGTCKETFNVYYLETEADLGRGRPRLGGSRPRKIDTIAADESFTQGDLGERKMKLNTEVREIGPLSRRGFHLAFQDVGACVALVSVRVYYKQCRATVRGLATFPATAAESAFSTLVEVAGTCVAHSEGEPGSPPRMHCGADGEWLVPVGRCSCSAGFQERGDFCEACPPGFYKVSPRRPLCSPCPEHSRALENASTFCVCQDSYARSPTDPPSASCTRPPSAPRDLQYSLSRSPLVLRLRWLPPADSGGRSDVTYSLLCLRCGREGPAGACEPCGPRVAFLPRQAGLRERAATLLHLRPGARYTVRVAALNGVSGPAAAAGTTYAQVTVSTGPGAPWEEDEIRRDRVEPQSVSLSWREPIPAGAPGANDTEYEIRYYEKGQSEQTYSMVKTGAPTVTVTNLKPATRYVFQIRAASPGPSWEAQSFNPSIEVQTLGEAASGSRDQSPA

[2] = target: T2, human EphB6 extracellular region-SEAP-His protein (human, UniProt O15197 32-594)
T2 construct: extracellular domain; also called hEphB6-SEAP-His
T2 sequence (looked up): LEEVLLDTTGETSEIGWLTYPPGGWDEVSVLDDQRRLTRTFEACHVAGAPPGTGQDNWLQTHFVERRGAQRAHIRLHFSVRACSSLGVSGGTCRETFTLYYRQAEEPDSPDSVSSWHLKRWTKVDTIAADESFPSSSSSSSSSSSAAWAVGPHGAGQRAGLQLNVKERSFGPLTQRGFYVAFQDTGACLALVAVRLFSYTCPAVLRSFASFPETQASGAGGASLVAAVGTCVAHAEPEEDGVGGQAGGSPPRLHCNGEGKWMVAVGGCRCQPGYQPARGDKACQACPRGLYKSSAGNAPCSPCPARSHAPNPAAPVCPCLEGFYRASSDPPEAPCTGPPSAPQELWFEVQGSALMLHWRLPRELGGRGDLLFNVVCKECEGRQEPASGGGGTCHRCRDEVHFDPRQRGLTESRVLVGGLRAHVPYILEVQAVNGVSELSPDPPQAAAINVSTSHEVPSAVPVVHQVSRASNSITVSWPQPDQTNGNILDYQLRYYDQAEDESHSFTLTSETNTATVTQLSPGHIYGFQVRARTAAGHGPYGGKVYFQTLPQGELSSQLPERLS

[3] = target: T3, human EphA6 extracellular region-SEAP-His protein (human, UniProt Q9UF33 23-550)
T3 construct: extracellular domain; also called hEphA6-SEAP-His
T3 sequence (looked up): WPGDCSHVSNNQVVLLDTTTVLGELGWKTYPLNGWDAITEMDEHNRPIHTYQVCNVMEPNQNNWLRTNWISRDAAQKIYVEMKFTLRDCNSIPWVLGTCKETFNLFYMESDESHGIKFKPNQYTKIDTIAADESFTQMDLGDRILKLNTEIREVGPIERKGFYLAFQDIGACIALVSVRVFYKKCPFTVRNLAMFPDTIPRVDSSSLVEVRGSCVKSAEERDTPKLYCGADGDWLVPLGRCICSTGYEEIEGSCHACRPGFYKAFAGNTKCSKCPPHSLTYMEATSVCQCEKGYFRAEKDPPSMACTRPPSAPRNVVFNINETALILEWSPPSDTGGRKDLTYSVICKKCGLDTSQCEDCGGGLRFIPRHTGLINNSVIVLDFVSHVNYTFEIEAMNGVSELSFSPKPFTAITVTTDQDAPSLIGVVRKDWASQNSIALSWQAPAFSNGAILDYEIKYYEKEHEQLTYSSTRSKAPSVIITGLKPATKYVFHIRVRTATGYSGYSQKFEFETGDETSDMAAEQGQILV

[4] = target: T4, human EphA2 extracellular region-SEAP-His protein (human, UniProt P29317 24-537)
T4 construct: extracellular domain; also called hEphA2-SEAP-His

[5] = target: T5, human EphB2 extracellular region-SEAP-His protein (human, UniProt P29323 19-543)
T5 construct: extracellular domain; also called hEphB2-SEAP-His
T5 sequence (looked up): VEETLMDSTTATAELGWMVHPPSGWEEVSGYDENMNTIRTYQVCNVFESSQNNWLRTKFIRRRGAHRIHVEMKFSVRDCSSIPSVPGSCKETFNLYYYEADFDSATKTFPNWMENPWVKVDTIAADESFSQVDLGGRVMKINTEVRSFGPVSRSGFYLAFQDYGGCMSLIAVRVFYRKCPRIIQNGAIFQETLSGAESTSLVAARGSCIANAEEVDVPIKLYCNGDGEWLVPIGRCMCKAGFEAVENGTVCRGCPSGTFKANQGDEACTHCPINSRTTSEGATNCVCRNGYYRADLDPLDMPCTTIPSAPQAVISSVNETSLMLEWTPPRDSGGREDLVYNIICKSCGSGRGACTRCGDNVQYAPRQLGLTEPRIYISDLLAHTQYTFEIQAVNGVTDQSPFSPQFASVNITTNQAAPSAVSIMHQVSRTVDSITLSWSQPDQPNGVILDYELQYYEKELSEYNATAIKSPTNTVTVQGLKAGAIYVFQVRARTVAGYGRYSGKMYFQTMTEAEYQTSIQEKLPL

SEAP-His = SEAP-His (UniProt P05187 23-511)
Sequence of SEAP-His (P05187 23-511): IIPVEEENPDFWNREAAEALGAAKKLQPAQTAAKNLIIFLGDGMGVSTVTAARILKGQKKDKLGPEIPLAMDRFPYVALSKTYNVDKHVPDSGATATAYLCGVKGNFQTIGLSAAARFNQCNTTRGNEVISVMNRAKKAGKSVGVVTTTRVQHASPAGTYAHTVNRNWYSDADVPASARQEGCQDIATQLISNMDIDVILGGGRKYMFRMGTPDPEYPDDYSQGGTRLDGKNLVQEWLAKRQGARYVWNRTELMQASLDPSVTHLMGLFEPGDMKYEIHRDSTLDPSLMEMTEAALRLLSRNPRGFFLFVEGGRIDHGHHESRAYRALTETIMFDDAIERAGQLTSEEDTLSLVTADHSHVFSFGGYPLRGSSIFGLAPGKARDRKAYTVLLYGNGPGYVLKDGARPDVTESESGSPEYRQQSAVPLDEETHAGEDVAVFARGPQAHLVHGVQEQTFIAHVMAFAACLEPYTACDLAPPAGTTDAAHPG

T4 sequence (P29317 24-537): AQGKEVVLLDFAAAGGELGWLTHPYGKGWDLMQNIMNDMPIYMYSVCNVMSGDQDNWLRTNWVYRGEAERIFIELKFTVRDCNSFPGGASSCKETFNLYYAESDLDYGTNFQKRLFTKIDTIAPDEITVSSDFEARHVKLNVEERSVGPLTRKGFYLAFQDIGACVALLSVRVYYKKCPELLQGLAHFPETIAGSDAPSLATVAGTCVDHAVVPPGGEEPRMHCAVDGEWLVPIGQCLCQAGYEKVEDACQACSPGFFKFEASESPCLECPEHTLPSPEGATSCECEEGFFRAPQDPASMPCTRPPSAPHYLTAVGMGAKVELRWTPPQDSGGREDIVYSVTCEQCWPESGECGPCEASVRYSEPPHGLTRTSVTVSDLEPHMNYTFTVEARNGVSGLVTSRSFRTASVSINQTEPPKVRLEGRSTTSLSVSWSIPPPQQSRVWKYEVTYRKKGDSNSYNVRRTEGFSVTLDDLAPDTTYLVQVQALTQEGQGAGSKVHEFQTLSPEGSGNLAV

B1: humanized antibody No. 139 (antibody, human IgG2)
heavy: QVQLVQSGSELKKPGASVKVSCKASGYTFTDYSMHWVRQAPGQGLEWMGWINTETGEPTYAQGFTGRFVFSLDTSVSTAYLQISSLKAEDTAVYYCARIPLYYYGSRYWYFDVWGQGTTVTVSSASTKGPSVFPLAPSSRSTSESTAALGCLVKDYFPEPVTVSWNSGALTSGVHTFPAVLQSSGLYSLSSVVTVPSSNFGTQTYTCNVDHKPSNTKVDKTVERKSCVECPPCPAPPAAAPSVFLFPPKPKDTLMISRTPEVTCVVVDVSHEDPEVQFNWYVDGVEVHNAKTKPREEQFNSTFRVVSVLTVVHQDWLNGKEYKCKVSNKGLPAPIEKTISKTKGQPREPQVYTLPPSREEMTKNQVSLTCLVKGFYPSDIAVEWESNGQPENNYKTTPPMLDSDGSFFLYSKLTVDKSRWQQGNVFSCSVMHEALHNHYTQKSLSLSPG
light: DIQMTQSPSSLSASVGDRVTITCRASENIYRNLAWYQQKPGKAPKLLVYAATNLADGVPSRFSGSGSGTDYTLTISSLQPEDFATYYCQHFWGTPWTFGQGTKVEIKRTVAAPSVFIFPPSDEQLKSGTASVVCLLNNFYPREAKVQWKVDNALQSGNSQESVTEQDSKDSTYSLSSTLTLSKADYEKHKVYACEVTHQGLSSPVTKSFNRGEC
notes: human Ig kappa; also called L1-4/HA1
A450 as % of hEphA4-SEAP-His [1]: 5.5%
A450 as % of hEphA4-SEAP-His [2]: 5.9%
A450 as % of hEphA4-SEAP-His [3]: 10%
A450 as % of hEphA4-SEAP-His [4]: 5.9%
A450 as % of hEphA4-SEAP-His [5]: 5.7%
A450 as % of hEphA4-SEAP-His (SEAP-His): 5.7%

B2: humanized antibody No. 141 (antibody, human IgG2)
heavy: QVQLVQSGSELKKPGASVKVSCKASGYTFTDYSMHWVRQAPGQGLEWMGWINTETGEPTYADDFKGRFVFSLDTSVSTAYLQISSLKAEDTAVYYCARIPLYYYGSRYWYFDVWGQGTTVTVSSASTKGPSVFPLAPSSRSTSESTAALGCLVKDYFPEPVTVSWNSGALTSGVHTFPAVLQSSGLYSLSSVVTVPSSNFGTQTYTCNVDHKPSNTKVDKTVERKSCVECPPCPAPPAAAPSVFLFPPKPKDTLMISRTPEVTCVVVDVSHEDPEVQFNWYVDGVEVHNAKTKPREEQFNSTFRVVSVLTVVHQDWLNGKEYKCKVSNKGLPAPIEKTISKTKGQPREPQVYTLPPSREEMTKNQVSLTCLVKGFYPSDIAVEWESNGQPENNYKTTPPMLDSDGSFFLYSKLTVDKSRWQQGNVFSCSVMHEALHNHYTQKSLSLSPG
light: DIQMTQSPSSLSASVGDRVTITCRASENIYRNLAWYQQKPGKAPKLLVYAATNLADGVPSRFSGSGSGTDYTLTISSLQPEDFATYYCQHFWGTPWTFGQGTKVEIKRTVAAPSVFIFPPSDEQLKSGTASVVCLLNNFYPREAKVQWKVDNALQSGNSQESVTEQDSKDSTYSLSSTLTLSKADYEKHKVYACEVTHQGLSSPVTKSFNRGEC
notes: human Ig kappa; also called L1-4/HK1
A450 as % of hEphA4-SEAP-His [1]: 5.2%
A450 as % of hEphA4-SEAP-His [2]: 5.4%
A450 as % of hEphA4-SEAP-His [3]: 9%
A450 as % of hEphA4-SEAP-His [4]: 5.2%
A450 as % of hEphA4-SEAP-His [5]: 5.2%
A450 as % of hEphA4-SEAP-His (SEAP-His): 5%

Further lines, results first:

A450 as % of hEphA4-SEAP-His [1]: 5.2%
A450 as % of hEphA4-SEAP-His [2]: 5.6%
A450 as % of hEphA4-SEAP-His [3]: 9.9%
A450 as % of hEphA4-SEAP-His [4]: 5.7%
A450 as % of hEphA4-SEAP-His [5]: 5.8%
A450 as % of hEphA4-SEAP-His (SEAP-His): 6.3%
B3: humanized antibody No. 143 (antibody, human IgG2)
heavy: QIQLVQSGSELKKPGASVKVSCKASGYTFTDYSMHWVRQAPGQGLKWMGWINTETGEPTYADDFKGRFVFSLDTSVSTAYLQISSLKAEDTAVYYCARIPLYYYGSRYWYFDVWGQGTTVTVSSASTKGPSVFPLAPSSRSTSESTAALGCLVKDYFPEPVTVSWNSGALTSGVHTFPAVLQSSGLYSLSSVVTVPSSNFGTQTYTCNVDHKPSNTKVDKTVERKSCVECPPCPAPPAAAPSVFLFPPKPKDTLMISRTPEVTCVVVDVSHEDPEVQFNWYVDGVEVHNAKTKPREEQFNSTFRVVSVLTVVHQDWLNGKEYKCKVSNKGLPAPIEKTISKTKGQPREPQVYTLPPSREEMTKNQVSLTCLVKGFYPSDIAVEWESNGQPENNYKTTPPMLDSDGSFFLYSKLTVDKSRWQQGNVFSCSVMHEALHNHYTQKSLSLSPG
light: DIQMTQSPSSLSASVGDRVTITCRASENIYRNLAWYQQKPGKAPKLLVYAATNLADGVPSRFSGSGSGTDYTLTISSLQPEDFATYYCQHFWGTPWTFGQGTKVEIKRTVAAPSVFIFPPSDEQLKSGTASVVCLLNNFYPREAKVQWKVDNALQSGNSQESVTEQDSKDSTYSLSSTLTLSKADYEKHKVYACEVTHQGLSSPVTKSFNRGEC
notes: human Ig kappa; also called L1-4/HK4

A450 as % of hEphA4-SEAP-His [1]: 5.4%
A450 as % of hEphA4-SEAP-His [2]: 5.6%
A450 as % of hEphA4-SEAP-His [3]: 9.7%
A450 as % of hEphA4-SEAP-His [4]: 5.6%
A450 as % of hEphA4-SEAP-His [5]: 5.6%
A450 as % of hEphA4-SEAP-His (SEAP-His): 5.8%
B4: humanized antibody No. 142 (antibody, human IgG2)
heavy: QVQLVQSGSELKKPGASVKVSCKASGYTFTDYSMHWVRQAPGQGLKWMGWINTETGEPTYADDFKGRFVFSLDTSVSTAYLQISSLKAEDTAVYYCARIPLYYYGSRYWYFDVWGQGTTVTVSSASTKGPSVFPLAPSSRSTSESTAALGCLVKDYFPEPVTVSWNSGALTSGVHTFPAVLQSSGLYSLSSVVTVPSSNFGTQTYTCNVDHKPSNTKVDKTVERKSCVECPPCPAPPAAAPSVFLFPPKPKDTLMISRTPEVTCVVVDVSHEDPEVQFNWYVDGVEVHNAKTKPREEQFNSTFRVVSVLTVVHQDWLNGKEYKCKVSNKGLPAPIEKTISKTKGQPREPQVYTLPPSREEMTKNQVSLTCLVKGFYPSDIAVEWESNGQPENNYKTTPPMLDSDGSFFLYSKLTVDKSRWQQGNVFSCSVMHEALHNHYTQKSLSLSPG
light: DIQMTQSPSSLSASVGDRVTITCRASENIYRNLAWYQQKPGKAPKLLVYAATNLADGVPSRFSGSGSGTDYTLTISSLQPEDFATYYCQHFWGTPWTFGQGTKVEIKRTVAAPSVFIFPPSDEQLKSGTASVVCLLNNFYPREAKVQWKVDNALQSGNSQESVTEQDSKDSTYSLSSTLTLSKADYEKHKVYACEVTHQGLSSPVTKSFNRGEC
notes: human Ig kappa; also called L1-4/HK2
